The values that follow come from the supplement of paper PMC9170038.

For the data set, the system named is MS2 coat protein. Briefly: apparent KD of MS2 coat protein; designed switch direction (-1 OFF switch, 1 ON switch): 1; higher = weaker reporter binding. An outline of the steps: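 An oligonucleotide input, 200 uM small-molecule ligand, or no input was present during titration of SNAP-549-labelled MS2 coat protein, which was doubled from 0.7 or 1.5 nM to 3 µM. Designed RNA switches had been transcribed on Illumina chips by stalled E. coli RNA polymerase. Apparent KD per design is the median over clusters of curves fitted to normalised cluster fluorescence.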

The mark [1] stands for this setting: input ligand: microRNA oligo, concentration not stated.
[2] abbreviates: Eterna round: R95, input ligand: FMN 200 uM.
[3] abbreviates: Eterna round: R95, input ligand: microRNA oligo, concentration not stated.
[4] abbreviates: Eterna round: R95, input ligand: none.

In the case of “GGUAGGUUACUACCAAACAUGAGGAUCACCCAUGUAAAUGGGAAGGAUAUGGUACCUAUUUGGUACCAGAAGGUCUAAAUAAUU [Mat - Same State NG 3 - JL Mod - D94] (Eterna round: R96, puzzle: Same State NG 3)”, the “apparent KD of MS2 coat protein” value was determined as 392 nM (input ligand: FMN 200 uM), 821 nM under setting [1] and 1020 nM (input ligand: none).
With “GGUAGGUUACUACCAAACAUGAGGAUCACCCAUGUAAGUGGGAAGGAUAUGGUACCGAAACGGUACCAGAAGGUCCAUAUAGUA [Mat - Same State NG 3 - JL Mod - D100] (Eterna round: R96, puzzle: Same State NG 3)”, the “apparent KD of MS2 coat protein” value (input ligand: FMN 200 uM) came out at 324 nM, the “apparent KD of MS2 coat protein” value under setting [1] was 564 nM and the “apparent KD of MS2 coat protein” value (input ligand: none) stood at 1100 nM.
The matching figures for “GGUAGGUUACUACCAAACAUGAGGAUCACCCAUGUAAGUGGGAAGGAUAUGGUACCUAUUUGGUACCAGAAGGUCUAAUUAAUU [Fiskers NG3ss - 2] (Eterna round: R96, puzzle: Same State NG 3)”: 444 nM, 59.9 nM and 1230 nM.
The matching figures for “GGUAGGUUACUACCAAACAUGAGGAUCACCCAUGUAAGUGGGAAGGAUAUGGUACCUUUUAGGUACCAGAAGGUCCAUAUAUUU [JL Fiskers NG3ss - 2 mod 8] (Eterna round: R96, puzzle: Same State NG 3)”: 231 nM, 847 nM and 1140 nM.
The matching figures for “GGUAGGUUACUACCAAACAUGAGGAUCACCCAUGUAGGUGGGAAGGAUAUGGUACCUUUUAGGUACCAGAAGGUCCAUACAAUU [NGss mod of JL's mod of Fisker] (Eterna round: R96, puzzle: Same State NG 3)”: 318 nM, 154 nM and 203 nM.
For the sequence “GGUAGGUUACUACCAACACAUGAGGAUCACCCAUGUUAGUGGGAGGAUAUGGUACCUAUUUGGUACCAGAAGGUCCAGUUAAUU [Fiskers NG3ss - 15] (Eterna round: R96, puzzle: Same State NG 3)”, the “apparent KD of MS2 coat protein” value by setting is: (input ligand: FMN 200 uM) 131 nM; under setting [1], 161 nM; (input ligand: none) 435 nM.
The matching figures for “GGUAGGUUACUACCAAUCUACAUGAGGAUCACCCAUGUGUAGGAGGAUAUGGUACCUAUUUGGUACCAGAAGGCCUUAUUAAUU [Fiskers NG3ss - 10] (Eterna round: R96, puzzle: Same State NG 3)”: 143 nM, 81.8 nM and 98.8 nM.
The matching figures for “GGUAGGUUACUACCAUACAUGAGGAUCACCCAUGUAAAUGGGAAGGAUAUGGUACCUAUUUGGUACCAGAAGGUCCAAAUAAUU [Mat - Same State NG 3 - JL Mod - D96] (Eterna round: R96, puzzle: Same State NG 3)”: 156 nM, 645 nM and 1170 nM.
As for “GGUAUCGGCGCAGGAUAUGCUAUCCUUUGGGUAGCAGAAGGGUGAACAUGAGGAUCACCCAUGUAGGUGCCAGGGCGUGAGCCC [JL SSNG1 1.81] (Eterna round: R96, puzzle: Same State NG 1)”, the “apparent KD of MS2 coat protein” value amounted to 1130 nM (input ligand: FMN 200 uM), 147 nM under setting [1] and 444 nM (input ligand: none).
On to “GGUCCAGCCUGAGCUGGACAAAAGCAUGUACAUGAGGAUCACCCAUGUCAUGUACAAGCUUUUUGCUCGUCUAAAAG [Mat - hsa-mir-208a - 95] (puzzle: Sensor for hsa-mir-208a)”, for which the “apparent KD of MS2 coat protein” value under setting [2] was 234 nM, the “apparent KD of MS2 coat protein” value under setting [3] came to 19 nM and the “apparent KD of MS2 coat protein” value under setting [4] amounted to 467 nM.
“GGUCCAGCCUGAGCUGGACAAAAGCAUGUACAUGAGGAUCACCCAUGUCAUGUACAAGCUUUUUGCUCGUCUUAAGA [Mat - hsa-mir-208a - 88] (Eterna round: R96, puzzle: Sensor for hsa-mir-208a)”: the “apparent KD of MS2 coat protein” value runs as follows: (input ligand: FMN 200 uM) 752 nM; under setting [1], 15.4 nM; (input ligand: none) 712 nM.
Turning to “GGUCCAGCCUGAGCUGGACAAAAGCAUGUACAUGAGGAUCACCCAUGUCAUGUACAAGCUUUUUGCUCGUCUUAAGA [Mat - hsa-mir-208a - 88] (puzzle: Sensor for hsa-mir-208a)”, the “apparent KD of MS2 coat protein” value is 1060 nM under setting [2], 17.7 nM under setting [3] and 1020 nM under setting [4].
The matching figures for “GGUCCAGCCUGAGCUGGACAAAAGCGUGUACAUGAGGAUCACCCAUGUCAUGUACAAGCUUUUUGCUCGUCUUAAAA [JL mod - D87 - 6] (puzzle: Sensor for hsa-mir-208a)”: 80.2 nM, 18.8 nM and 94.9 nM.
The matching figures for “GGUCCAGCCUGAGCUGGACCACAGCAUGUACAUGAGGAUCACCCAUGUCAUGUACAUGCUUUUUGUUUGUCUUAAAA [Sensorship 11 - Jieux - Sensor for hsa-mir-208a] (puzzle: Sensor for hsa-mir-208a)”: 72.2 nM, 32.7 nM and 47.3 nM.
For “GGUCCAGCCUGAGCUGGACGAAAGUAUGUACAUGAGGAUCACCCAUGUCAUGUAUAAGUUUUUUGUUCGUCUUGAAA [Sensorship 1 - Jieux - Sensor for hsa-mir-208a] (puzzle: Sensor for hsa-mir-208a)”, in that order: 26 nM, 14.2 nM and 23.1 nM.
“GGUCCAGCUUUUGCUGGUCCUUCGCUUGCACAUGAGGAUCACCCAUGUCGUGUACAUGCUUCCUGCCCGUCUUUUUU [Photon Torp-17] (puzzle: Sensor for hsa-mir-208a)”: the “apparent KD of MS2 coat protein” value by setting is: under setting [2], 34.4 nM; under setting [3], 15.5 nM; under setting [4], 39.1 nM.
As to “GGUCGGACUCACAUGAGGAUCACCCAUGUUGCGGAAACGCCAUAGGAUAUCUGUCCGAAAAGGUCAGAGAAGGGUGAACCGACC [Fiskers NG3ss - 65] (Eterna round: R96, puzzle: Same State NG 3)”, the “apparent KD of MS2 coat protein” value reads like this: (input ligand: FMN 200 uM) 515 nM; under setting [1], 391 nM; (input ligand: none) 572 nM.
For the sequence “GGUCGGACUCACAUGAGGAUCACCCAUGUUGGCGAAAGCCGACAGGAUAUCUGUCCGAAAAGGUCAGAGAAGGGUUAACCGACC [Fiskers NG3ss - 61] (Eterna round: R96, puzzle: Same State NG 3)”, the “apparent KD of MS2 coat protein” value (input ligand: FMN 200 uM) was found to be 397 nM, the “apparent KD of MS2 coat protein” value under setting [1] worked out at 326 nM and the “apparent KD of MS2 coat protein” value (input ligand: none) was 159 nM.
The matching figures for “GGUCGGUCCAAACAUGAGGAUCACCCAUGUCCGGAAACGGCAUAGGAUAUCUGUCCGAAAAGGUCAGAGAAGGGUGAACCGACC [Fiskers NG3ss - 71] (Eterna round: R96, puzzle: Same State NG 3)”: 795 nM, 741 nM and 149 nM.
For “GGUCUAGUUACAGGAUAUGCUAUCCUUUGGGUAGCAGAAGGGUGGUAACAUGAGGAUCACCCAUGUGGGCCAGGGCGUGAGCCC [JL SSNG1 1.00] (Eterna round: R96, puzzle: Same State NG 1)”, in that order: 770 nM, 981 nM and 1260 nM.
The matching figures for “GGUGCCAAAUAAGCCUACAUGAGGAUCACCCAUGUAUGUAGGCAGGAUAUCGUAUGCAAAGCAUACGAGAAGGGCUGAGGCACC [Mat - Same State NG 3 - JL Mod - D54] (Eterna round: R96, puzzle: Same State NG 3)”: 25.7 nM, 51.6 nM and 80.5 nM.
On to “GGUGCGAAAUAAGCCUACAUGAGGAUCACCCAUGUAUGUAGGCAGGAUAUCGUAUGCAAAGCAUACGAGAAGGGCUGACGCACC [Mat - Same State NG 3 - JL Mod - D51] (Eterna round: R96, puzzle: Same State NG 3)”, for which the “apparent KD of MS2 coat protein” value (input ligand: FMN 200 uM) turned out to be 32.5 nM, the “apparent KD of MS2 coat protein” value under setting [1] is 55.9 nM and the “apparent KD of MS2 coat protein” value (input ligand: none) was found to be 75.4 nM.
For “GGUGGGUUACUACCCACACAUGAGGAUCACCCAUGUAUUGGGAAGGAUAUGGUGCCUGUGUGGUACCAGAAGGUCCUGAAGGUG [SS-NG3-LRO18] (Eterna round: R96, puzzle: Same State NG 3)”, in that order: 1360 nM, 1030 nM and 2130 nM.
As to “GGUGUACAUGAGGAUCACCCAUGUCGUACGACAUGAGGAUAUGUACAGACUUCGGUCUGUACAGAAGGCAUGUGUC [SS1 - 1011 Omei Mod 5] (puzzle: Same State 1)”, the “apparent KD of MS2 coat protein” value under setting [3] was found to be 210 nM.
As for “GGUUUAGCCAGGUGCAGUUGCACCUGAAAACAUGAGGAUCACCCAUGUUUGGGACAAGCUUUGCUCCUCGUCUUUCC [Isusreraar] (puzzle: Sensor for hsa-mir-208a)”, the “apparent KD of MS2 coat protein” value by setting is: under setting [2], 267 nM; under setting [3], 38.7 nM; under setting [4], 364 nM.
For “GGUUUAGUCAAGUGCCGUUGCACUUGAAAACAUGAGGAUCACCCAUGUUCGGGACAAGCUUUGCUCCUCGUCUUUCC [Geisedor] (puzzle: Sensor for hsa-mir-208a)”, in that order: 255 nM, 50.2 nM and 389 nM.
